Results taken from patent publication US20150353638A1 (INSTITUTE OF BASIC MEDICAL SCIENCES CHINESE ACADEMY OF …, published 2015).

B1: humanized anti-human DR5 monoclonal antibody AD15 (antibody, human IgG1, kappa)
heavy: not shown
light: DVVMTQSPLSLPVTPGEPASISCRSSQSLVHSNGNTYLHWYLQKPGQSPQLLIYKVSNRFSGVPDRFSGSGSGTDFTLKISRVEAEDVGVYFCFQSTHVPHTFGQGTKLEIKRTVAAPSVFIFPPSDEQLKSGTASVVCLLNNFYPREAKVQWKVDNALQSGNSQESVTEQDSKDSTYSLSSTLTLSKADYEKHKVYACEVTHQGLSSPVTKSFNRGEC
notes: Humanized from murine AD5-10 by CDR grafting; human IgG1 heavy chain constant region and kappa light chain
B2: humanized anti-human DR5 monoclonal antibody AD10 (antibody, human IgG1, kappa, V domains shown)
VH: EIQLVQSGPELKKPGASVKVSCKASGYTFTDFSMNWVRQAPGQGLKWMGWINTETGEPTYADDFKGRFALSMDTSVSTAYLQISSLKAEDTAVYFCVRIDYWGQGTTVTVSS
VL: DIVMTQSPLSLPVTPGEPASISCRSSQSLVHSNGNTYLHWYLQKPGQSPQLLIYKVSNRFSGVPDRFSGSGSGTDFTLKISRVEAEDVGVYYCFQSTHVPHTFGQGTKLEIKR
notes: as for B1
B3: humanized anti-human DR5 monoclonal antibody AD14 (antibody, human IgG1, kappa)
heavy: not shown
light: DVVMTQSPLSLPVTPGEPASISCRSSQSLVHSNGNTYLHWYLQKPGQSPQLLIYKVSNRFSGVPDRFSGSGSGTDFTLKISRVEAEDVGVYFCFQSTHVPHTFGQGTKLEIKRTVAAPSVFIFPPSDEQLKSGTASVVCLLNNFYPREAKVQWKVDNALQSGNSQESVTEQDSKDSTYSLSSTLTLSKADYEKHKVYACEVTHQGLSSPVTKSFNRGEC
notes: as for B1

The binders below were run against T1, antigen DR5 (human death receptor 5), immobilised on the CM5 chip (human, UniProt O14763 56-182, limits assumed) (assay: SPR (Biacore X100), DR5 immobilised on CM5 chip, antibody injected as analyte).
T1 construct: The title says the antibodies are against the extracellular domain, but the construct used is not described; also called TRAIL receptor 2; TRAIL-R2

| Binder | Kd [nM] | koff [s⁻¹] | kon [M⁻¹ s⁻¹] |
| --- | --- | --- | --- |
| B1 | 2.95 | 0.0097 | 3.28e+06 |
| B2 | 3.51 | 0.0198 | 5.64e+06 |
| B3 | 1.65 | 0.014 | 8.44e+06 |
